Reference: article PMC12137620, “Targeting the MDK/c‐Myc complex to overcome temozolomide resistance in glioma” (Clinical and Translational Medicine, 2025)

Key:
His-tagged c-Myc [1] = molecular target: T1, His-tagged c-Myc (human, UniProt P01106 1-454, labelled with the NT-647-NHS dye); assay: MST; as the MST of MDK and c-Myc, after the addition of 1 µM ACT001; conditions: both partners purified
T1 construct: c-Myc; plasmid constructed by Tsingke Biotechnology Co., Ltd. (Beijing); also called recombinant c-Myc protein; source: bacterial BL21 cells, purified (Ni-NTA agarose)
T1 sequence (P01106 whole entry): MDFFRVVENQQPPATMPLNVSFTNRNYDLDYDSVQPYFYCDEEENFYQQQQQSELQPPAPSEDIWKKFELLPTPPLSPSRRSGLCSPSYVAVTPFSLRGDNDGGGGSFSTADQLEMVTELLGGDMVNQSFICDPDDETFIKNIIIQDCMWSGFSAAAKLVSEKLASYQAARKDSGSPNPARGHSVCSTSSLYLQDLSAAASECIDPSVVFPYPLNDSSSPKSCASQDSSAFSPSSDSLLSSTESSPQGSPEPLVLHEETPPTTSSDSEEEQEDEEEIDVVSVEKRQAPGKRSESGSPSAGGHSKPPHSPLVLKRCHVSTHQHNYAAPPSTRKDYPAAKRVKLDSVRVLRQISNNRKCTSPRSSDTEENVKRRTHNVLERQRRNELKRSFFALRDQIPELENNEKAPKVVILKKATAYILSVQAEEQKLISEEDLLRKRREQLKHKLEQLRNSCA

His-tagged c-Myc [2] = molecular target: T1, His-tagged c-Myc; assay: MST; Monolith NT.115; NT-647-NHS-labelled c-Myc held constant (416 nM stock mixed 1:1), MDK in 16 serial dilutions; PBSP (1x PBS + 0.1% Pluronic F-127); standard treated capillaries; conditions: both partners purified

Kd (His-tagged c-Myc [1]): 1540 nM
Kd (His-tagged c-Myc [2]): 18.8 nM
B1: Recombinant human MDK protein (natural protein, UniProt P21741 21-143, looked up)
chain: VAKKKDKVKKGGPGSECAEWAWGPCTPSSKDCGVGFREGTCGAQTQRIRCRVPCNWKKEFGADCKYKFENWGACDGGTGTKVRQGTLKKARYNAQCQETIRVTKPCTPKTKAKAKAKKGKGKD
notes: recombinant human midkine, bought; also called midkine; source: bought: Zeye Biotechnology Corporation (ZY631H02P, Shanghai)
